# Results: paper PMC9482650, “Quantitative fragmentomics allow affinity mapping of interactomes” (Nature Communications, 2022)
# T1: PCLO, Q9Y6V0
# T1 sequence (Q9Y6V0 4491-4600, limits assumed, looked up): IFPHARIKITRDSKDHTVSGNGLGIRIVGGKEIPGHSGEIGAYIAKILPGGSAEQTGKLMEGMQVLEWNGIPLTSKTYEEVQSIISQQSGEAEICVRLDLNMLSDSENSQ
# T2: LIN7A, O14910
# T2 sequence (O14910 103-200, limits assumed, looked up): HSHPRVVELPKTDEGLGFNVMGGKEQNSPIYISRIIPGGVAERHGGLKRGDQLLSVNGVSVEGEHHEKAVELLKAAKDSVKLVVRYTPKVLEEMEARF
# T3: PARD3B_1, Q8TEW8
# T3 sequence (Q8TEW8 196-299, limits assumed, looked up): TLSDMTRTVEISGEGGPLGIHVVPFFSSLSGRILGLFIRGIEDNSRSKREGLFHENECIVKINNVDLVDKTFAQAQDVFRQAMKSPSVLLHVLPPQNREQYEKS
# T4: SYNJ2BP, P57105
# T4 sequence (P57105 8-110, limits assumed, looked up): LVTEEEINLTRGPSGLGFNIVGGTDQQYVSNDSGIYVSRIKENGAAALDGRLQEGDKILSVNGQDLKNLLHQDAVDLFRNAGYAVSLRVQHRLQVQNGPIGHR
# T5: RAPGEF6, Q8TEU7
# T5 sequence (Q8TEU7 525-625, limits assumed, looked up): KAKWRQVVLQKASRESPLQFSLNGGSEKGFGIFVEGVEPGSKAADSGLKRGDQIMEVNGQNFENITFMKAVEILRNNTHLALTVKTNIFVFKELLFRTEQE
# T6: PDZD7_3, Q9H5P4
# T6 sequence (Q9H5P4 857-944, limits assumed, looked up): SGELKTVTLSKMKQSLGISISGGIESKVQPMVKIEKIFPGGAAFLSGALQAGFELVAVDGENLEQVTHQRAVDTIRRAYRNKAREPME
# T7: PTPN13_1, Q12923
# T7 sequence (Q12923 1088-1188, limits assumed, looked up): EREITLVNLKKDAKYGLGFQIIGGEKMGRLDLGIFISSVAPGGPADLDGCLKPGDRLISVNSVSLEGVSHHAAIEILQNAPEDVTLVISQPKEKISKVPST
# T8: ARHGAP21, Q5T5U3
# T8 sequence (Q5T5U3 45-169, limits assumed, looked up): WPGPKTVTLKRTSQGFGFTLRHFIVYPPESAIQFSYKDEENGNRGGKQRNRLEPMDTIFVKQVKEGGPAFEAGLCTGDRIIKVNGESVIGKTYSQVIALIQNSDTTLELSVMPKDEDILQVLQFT
# T9: MPDZ_5, O75970
# T9 sequence (O75970 695-796, limits assumed, looked up): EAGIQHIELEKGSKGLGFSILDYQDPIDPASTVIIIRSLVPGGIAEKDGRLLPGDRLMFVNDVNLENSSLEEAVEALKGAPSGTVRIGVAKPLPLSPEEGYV
# T10: SNTB1, Q13884
# T10 sequence (Q13884 107-205, limits assumed, looked up): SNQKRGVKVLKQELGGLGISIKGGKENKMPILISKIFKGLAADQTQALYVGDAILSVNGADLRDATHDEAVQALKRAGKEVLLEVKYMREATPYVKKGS
# T11: SIPA1L2, Q9P2F8
# T11 sequence (Q9P2F8 945-1036, limits assumed, looked up): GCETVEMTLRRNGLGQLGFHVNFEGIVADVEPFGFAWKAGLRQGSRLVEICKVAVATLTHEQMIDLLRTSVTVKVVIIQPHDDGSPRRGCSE
# T12: LRRC7, Q96NW7
# T12 sequence (Q96NW7 1440-1537, limits assumed, looked up): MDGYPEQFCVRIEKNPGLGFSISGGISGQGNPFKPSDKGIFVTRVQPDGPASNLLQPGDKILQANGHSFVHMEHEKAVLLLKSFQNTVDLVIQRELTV
# Tests used:
# Assay in all cases: holdup assay
# Parameters in all cases: key: below the threshold = too weak to quantify, mostly under pKd 3.1 to 4
# PCLO, Q9Y6V0 = molecular target: T1, PCLO, Q9Y6V0
# Inadl_10, Q8NI35 = molecular target: Inadl_10, Q8NI35
# FRMPD2_2, Q68DX3 = molecular target: FRMPD2_2, Q68DX3
# LIN7A, O14910 = molecular target: T2, LIN7A, O14910
# DLG1_3, Q12959 = molecular target: DLG1_3, Q12959
# PARD3B_1, Q8TEW8 = molecular target: T3, PARD3B_1, Q8TEW8
# DLG1_2, Q12959 = molecular target: DLG1_2, Q12959
# SYNJ2BP, P57105 = molecular target: T4, SYNJ2BP, P57105
# HTRA1, Q92743 = molecular target: HTRA1, Q92743
# GOPC, Q9HD26 = molecular target: GOPC, Q9HD26
# GRIP2_3, Q9C0E4 = molecular target: GRIP2_3, Q9C0E4
# RAPGEF6, Q8TEU7 = molecular target: T5, RAPGEF6, Q8TEU7
# PDZD7_3, Q9H5P4 = molecular target: T6, PDZD7_3, Q9H5P4
# GRIP2_7, Q9C0E4 = molecular target: GRIP2_7, Q9C0E4
# PTPN13_1, Q12923 = molecular target: T7, PTPN13_1, Q12923
# DLG2_2, Q15700 = molecular target: DLG2_2, Q15700
# DLG2_3, Q15700 = molecular target: DLG2_3, Q15700
# DLG4_3, P78352 = molecular target: DLG4_3, P78352
# ARHGAP21, Q5T5U3 = molecular target: T8, ARHGAP21, Q5T5U3
# GIPC2, Q8TF65 = molecular target: GIPC2, Q8TF65
# MPDZ_5, O75970 = molecular target: T9, MPDZ_5, O75970
# SNTB1, Q13884 = molecular target: T10, SNTB1, Q13884
# SIPA1L2, Q9P2F8 = molecular target: T11, SIPA1L2, Q9P2F8
# GRID2IP_1, A4D2P6 = molecular target: GRID2IP_1, A4D2P6
# LRRC7, Q96NW7 = molecular target: T12, LRRC7, Q96NW7
# [1] = plain residues with an end cap or a label only (N-terminal biotin on a linker: ttds)
# [2] = plain residues with an end cap or a label only (N-terminal biotin on a linker: ado-ado)
# Sequence of HTRA1, Q92743 (Q92743 360-477): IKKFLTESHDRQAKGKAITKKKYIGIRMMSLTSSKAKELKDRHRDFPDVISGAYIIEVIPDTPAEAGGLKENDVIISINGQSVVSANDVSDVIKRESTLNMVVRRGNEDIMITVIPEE
# Sequence of FRMPD2_2, Q68DX3 (Q68DX3 944-1038): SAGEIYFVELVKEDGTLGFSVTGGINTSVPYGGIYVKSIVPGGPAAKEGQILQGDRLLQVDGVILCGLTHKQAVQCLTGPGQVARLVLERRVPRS
# Sequence of GRIP2_7, Q9C0E4 (Q9C0E4 934-1023): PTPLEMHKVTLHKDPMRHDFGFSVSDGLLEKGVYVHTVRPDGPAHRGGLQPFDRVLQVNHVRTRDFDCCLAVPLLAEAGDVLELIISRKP
# Sequence of Inadl_10, Q8NI35 (Q8NI35 1673-1763): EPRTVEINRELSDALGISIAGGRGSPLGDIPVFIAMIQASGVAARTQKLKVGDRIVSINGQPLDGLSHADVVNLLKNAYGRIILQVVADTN
# Sequence of GRIP2_3, Q9C0E4 (Q9C0E4 238-339): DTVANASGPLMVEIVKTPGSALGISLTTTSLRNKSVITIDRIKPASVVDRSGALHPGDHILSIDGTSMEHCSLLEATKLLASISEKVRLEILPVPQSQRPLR
# Sequence of GIPC2, Q8TF65 (Q8TF65 112-203): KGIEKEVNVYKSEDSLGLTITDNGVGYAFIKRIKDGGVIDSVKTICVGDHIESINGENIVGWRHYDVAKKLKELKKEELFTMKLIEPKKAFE
# Sequence of DLG1_2, Q12959 (Q12959 314-412): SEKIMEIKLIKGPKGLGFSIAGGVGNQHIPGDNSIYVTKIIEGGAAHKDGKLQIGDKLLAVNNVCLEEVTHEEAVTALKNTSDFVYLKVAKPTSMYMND
# Sequence of DLG4_3, P78352 (P78352 306-403): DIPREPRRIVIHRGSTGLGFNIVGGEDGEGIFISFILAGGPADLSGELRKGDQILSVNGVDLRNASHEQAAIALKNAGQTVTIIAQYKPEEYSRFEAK
# Sequence of DLG1_3, Q12959 (Q12959 457-571): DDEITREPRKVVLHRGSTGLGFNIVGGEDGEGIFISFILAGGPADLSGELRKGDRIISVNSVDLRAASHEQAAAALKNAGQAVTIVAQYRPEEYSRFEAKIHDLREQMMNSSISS
# Sequence of GRID2IP_1, A4D2P6 (A4D2P6 1-87): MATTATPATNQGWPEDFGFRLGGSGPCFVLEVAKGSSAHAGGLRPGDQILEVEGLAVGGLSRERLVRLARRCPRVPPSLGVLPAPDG
binder,measurement,setting,value
"LDSQIQETSI [MAP4, P27816]",pKd,"PCLO, Q9Y6V0; [1]",below the threshold
same,pKd,"Inadl_10, Q8NI35; [1]",below the threshold
same,pKd,"FRMPD2_2, Q68DX3; [1]",3.8
same,pKd,"LIN7A, O14910; [1]",below the threshold
same,pKd,"DLG1_3, Q12959; [1]",4.06
same,pKd,"PARD3B_1, Q8TEW8; [1]",below the threshold
same,pKd,"DLG1_2, Q12959; [1]",4.37
same,pKd,"SYNJ2BP, P57105; [1]",4.95
same,pKd,"HTRA1, Q92743; [1]",below the threshold
same,pKd,"GOPC, Q9HD26; [1]",4.14
same,pKd,"GRIP2_3, Q9C0E4; [1]",below the threshold
same,pKd,"RAPGEF6, Q8TEU7; [1]",below the threshold
same,pKd,"PDZD7_3, Q9H5P4; [1]",5.63
same,pKd,"GRIP2_7, Q9C0E4; [1]",below the threshold
same,pKd,"PTPN13_1, Q12923; [1]",below the threshold
same,pKd,"DLG2_2, Q15700; [1]",3.9
same,pKd,"DLG2_3, Q15700; [1]",4.07
same,pKd,"DLG4_3, P78352; [1]",3.61
same,pKd,"ARHGAP21, Q5T5U3; [1]",below the threshold
same,pKd,"GIPC2, Q8TF65; [1]",below the threshold
same,pKd,"MPDZ_5, O75970; [1]",below the threshold
same,pKd,"SNTB1, Q13884; [1]",4.93
same,pKd,"SIPA1L2, Q9P2F8; [1]",below the threshold
same,pKd,"GRID2IP_1, A4D2P6; [1]",below the threshold
same,pKd,"LRRC7, Q96NW7; [1]",below the threshold
"EDLTKNHDEL [RCN1, Q15293]",pKd,"PCLO, Q9Y6V0; [2]",below the threshold
same,pKd,"Inadl_10, Q8NI35; [2]",below the threshold
same,pKd,"FRMPD2_2, Q68DX3; [2]",below the threshold
same,pKd,"LIN7A, O14910; [2]",below the threshold
same,pKd,"DLG1_3, Q12959; [2]",3.8
same,pKd,"PARD3B_1, Q8TEW8; [2]",below the threshold
same,pKd,"DLG1_2, Q12959; [2]",below the threshold
same,pKd,"SYNJ2BP, P57105; [2]",below the threshold
same,pKd,"HTRA1, Q92743; [2]",3.5
same,pKd,"GOPC, Q9HD26; [2]",3.52
same,pKd,"GRIP2_3, Q9C0E4; [2]",3.51
same,pKd,"RAPGEF6, Q8TEU7; [2]",below the threshold
same,pKd,"PDZD7_3, Q9H5P4; [2]",below the threshold
same,pKd,"GRIP2_7, Q9C0E4; [2]",3.59
same,pKd,"PTPN13_1, Q12923; [2]",below the threshold
same,pKd,"DLG2_2, Q15700; [2]",below the threshold
same,pKd,"DLG2_3, Q15700; [2]",below the threshold
same,pKd,"DLG4_3, P78352; [2]",4
same,pKd,"ARHGAP21, Q5T5U3; [2]",4.17
same,pKd,"GIPC2, Q8TF65; [2]",below the threshold
same,pKd,"MPDZ_5, O75970; [2]",below the threshold
same,pKd,"SNTB1, Q13884; [2]",below the threshold
same,pKd,"SIPA1L2, Q9P2F8; [2]",below the threshold
same,pKd,"GRID2IP_1, A4D2P6; [2]",below the threshold
same,pKd,"LRRC7, Q96NW7; [2]",below the threshold
"NYWPGKETQL [SLCO1C1, Q9NYB5]",pKd,"PCLO, Q9Y6V0; [1]",below the threshold
same,pKd,"Inadl_10, Q8NI35; [1]",below the threshold
same,pKd,"FRMPD2_2, Q68DX3; [1]",below the threshold
same,pKd,"LIN7A, O14910; [1]",4.14
same,pKd,"DLG1_3, Q12959; [1]",5.02
same,pKd,"PARD3B_1, Q8TEW8; [1]",3.7
same,pKd,"DLG1_2, Q12959; [1]",5.37
same,pKd,"SYNJ2BP, P57105; [1]",5.4
same,pKd,"HTRA1, Q92743; [1]",below the threshold
same,pKd,"GOPC, Q9HD26; [1]",4.32
same,pKd,"GRIP2_3, Q9C0E4; [1]",below the threshold
same,pKd,"RAPGEF6, Q8TEU7; [1]",below the threshold
same,pKd,"PDZD7_3, Q9H5P4; [1]",4.62
same,pKd,"GRIP2_7, Q9C0E4; [1]",below the threshold
same,pKd,"PTPN13_1, Q12923; [1]",below the threshold
same,pKd,"DLG2_2, Q15700; [1]",4.9
same,pKd,"DLG2_3, Q15700; [1]",4.69
same,pKd,"DLG4_3, P78352; [1]",4.18
same,pKd,"ARHGAP21, Q5T5U3; [1]",3.94
same,pKd,"GIPC2, Q8TF65; [1]",below the threshold
same,pKd,"MPDZ_5, O75970; [1]",below the threshold
same,pKd,"SNTB1, Q13884; [1]",5.42
same,pKd,"SIPA1L2, Q9P2F8; [1]",below the threshold
same,pKd,"GRID2IP_1, A4D2P6; [1]",below the threshold
same,pKd,"LRRC7, Q96NW7; [1]",4.31
"CNTVTVETVV [MAS1, P04201]",pKd,"PCLO, Q9Y6V0; [1]",below the threshold
same,pKd,"Inadl_10, Q8NI35; [1]",below the threshold
same,pKd,"FRMPD2_2, Q68DX3; [1]",below the threshold
same,pKd,"LIN7A, O14910; [1]",below the threshold
same,pKd,"DLG1_3, Q12959; [1]",below the threshold
same,pKd,"PARD3B_1, Q8TEW8; [1]",below the threshold
same,pKd,"DLG1_2, Q12959; [1]",4.29
same,pKd,"SYNJ2BP, P57105; [1]",3.98
same,pKd,"HTRA1, Q92743; [1]",3.61
same,pKd,"GOPC, Q9HD26; [1]",below the threshold
same,pKd,"GRIP2_3, Q9C0E4; [1]",below the threshold
same,pKd,"RAPGEF6, Q8TEU7; [1]",below the threshold
same,pKd,"PDZD7_3, Q9H5P4; [1]",4.27
same,pKd,"GRIP2_7, Q9C0E4; [1]",below the threshold
same,pKd,"PTPN13_1, Q12923; [1]",3.57
same,pKd,"DLG2_2, Q15700; [1]",4.19
same,pKd,"DLG2_3, Q15700; [1]",below the threshold
same,pKd,"DLG4_3, P78352; [1]",below the threshold
same,pKd,"ARHGAP21, Q5T5U3; [1]",below the threshold
same,pKd,"GIPC2, Q8TF65; [1]",below the threshold
same,pKd,"MPDZ_5, O75970; [1]",3.53
same,pKd,"SNTB1, Q13884; [1]",4.29
same,pKd,"SIPA1L2, Q9P2F8; [1]",below the threshold
same,pKd,"GRID2IP_1, A4D2P6; [1]",below the threshold
same,pKd,"LRRC7, Q96NW7; [1]",below the threshold
